Patent US20160319041

T1: rNFH-SA (engineered protein with residues 426-1066 of the rat NF-H sidearm domain, N-terminal tetra-Cys tag, C-terminal poly-His-Asn tag)
T1 sequence: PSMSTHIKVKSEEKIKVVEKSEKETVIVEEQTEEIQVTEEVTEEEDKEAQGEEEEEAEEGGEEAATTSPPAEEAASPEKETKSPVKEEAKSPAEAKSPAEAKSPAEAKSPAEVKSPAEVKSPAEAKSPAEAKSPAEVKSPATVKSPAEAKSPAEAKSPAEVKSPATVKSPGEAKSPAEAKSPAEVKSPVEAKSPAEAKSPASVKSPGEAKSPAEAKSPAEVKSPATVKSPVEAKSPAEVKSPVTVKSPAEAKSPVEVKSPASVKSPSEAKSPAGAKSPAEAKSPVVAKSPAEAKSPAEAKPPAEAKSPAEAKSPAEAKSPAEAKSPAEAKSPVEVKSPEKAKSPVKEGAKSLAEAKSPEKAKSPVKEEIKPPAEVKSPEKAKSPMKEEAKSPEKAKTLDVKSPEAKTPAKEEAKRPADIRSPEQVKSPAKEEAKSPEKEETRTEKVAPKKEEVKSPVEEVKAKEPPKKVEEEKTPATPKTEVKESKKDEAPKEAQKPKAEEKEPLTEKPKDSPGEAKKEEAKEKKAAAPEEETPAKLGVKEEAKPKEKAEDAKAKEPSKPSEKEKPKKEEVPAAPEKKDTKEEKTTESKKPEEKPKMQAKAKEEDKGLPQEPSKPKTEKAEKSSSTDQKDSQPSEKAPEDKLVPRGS

T2: rNFH-SA (engineered protein with residues 426-1066 of the rat NF-H sidearm domain, N-terminal tetra-Cys tag, C-terminal poly-His-Asn tag)
T2 chain: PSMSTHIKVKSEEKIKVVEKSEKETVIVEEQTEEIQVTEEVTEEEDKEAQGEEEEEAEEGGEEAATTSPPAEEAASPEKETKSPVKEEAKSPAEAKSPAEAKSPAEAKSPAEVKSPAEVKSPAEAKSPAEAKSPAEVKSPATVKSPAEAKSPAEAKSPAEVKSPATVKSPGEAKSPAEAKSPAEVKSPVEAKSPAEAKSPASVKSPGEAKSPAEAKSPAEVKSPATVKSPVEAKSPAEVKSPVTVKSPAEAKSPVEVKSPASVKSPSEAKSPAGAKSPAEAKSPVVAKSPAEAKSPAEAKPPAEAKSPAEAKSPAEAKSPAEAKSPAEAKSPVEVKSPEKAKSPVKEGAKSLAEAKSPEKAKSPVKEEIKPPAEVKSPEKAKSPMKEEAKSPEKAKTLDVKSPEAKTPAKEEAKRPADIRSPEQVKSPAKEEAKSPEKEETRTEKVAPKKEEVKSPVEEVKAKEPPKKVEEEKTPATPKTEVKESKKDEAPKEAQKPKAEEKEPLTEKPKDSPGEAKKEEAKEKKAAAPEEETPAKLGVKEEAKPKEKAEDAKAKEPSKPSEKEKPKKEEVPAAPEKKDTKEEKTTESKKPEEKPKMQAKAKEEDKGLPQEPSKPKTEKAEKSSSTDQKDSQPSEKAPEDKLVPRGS


Columns and labels:
[1] = test system: T1, rNFH-SA (engineered protein with residues 426-1066 of the rat NF-H sidearm domain, N-terminal tetra-Cys tag, C-terminal poly-His-Asn tag)
[2] = molecular target: T2, rNFH-SA (engineered protein with …)

Molecule	loss of HN-tag immunofluorescence; brush height by AFM [1]	loss of HN-tag immunofluorescence [2]	reduction of brush height by AFM [2]
thrombin	addition of thrombin produced a loss of fluorescence (indicating successful enzymatic cleavage) without producing a significant change in brush height by AFM		
clostripain (protein) NKNQKVTIMYYCDADNNLEGSLLNDIEEMKTGYKDSPNLNLIALVDRSPRYSSDEKVLGEDFSDTRLYKIEHNKANRLDGKNEFPEISTTSKYEANMGDPEVLKKFIDYCKSNYEADKYVLIMANHGGGAREKSNPRLNRAICWDDSNLDKNGEADCLYMGEISDHLTEKQSVDLLAFDACLMGTAEVAYQYRPGNGGFSADTLVASSPVVWGPGFKYDKIFDRIKAGGGTNNEDDLTLGGKEQNFDPATITNEQLGALFVEEQRDSTHANGRYDQHLSFYDLKKAESVKRAIDNLAVNLSNENKKSEIEKLRGSGIHTDLMHYFDEYSEGEWVEYPYFDVYDLCEKINKSENFSSKTKDLASNAMNKLNEMIVYSFGDPSNNFKEGKNGLSIFLPNGDKKYSTYYTSTKIPHWTMQSWYNSIDTVKYGLNPYGKLSWCKDGQDPEINKVGNWFELLDSWFDKTNDVTGGVNHYQW		addition of clostripain produced the same loss of fluorescence	reducing brush height by 20%
